Test in all cases: HPLC (MonoQ) product analysis, fit to substrate inhibition model
The target of one series is T1, TbITPA (Trypanosoma brucei, UniProt Q389X7).
T1 construct: gene Tb10.6k15.0290; homodimer 48 kDa by gel filtration
T1 sequence (Q389X7 87-287): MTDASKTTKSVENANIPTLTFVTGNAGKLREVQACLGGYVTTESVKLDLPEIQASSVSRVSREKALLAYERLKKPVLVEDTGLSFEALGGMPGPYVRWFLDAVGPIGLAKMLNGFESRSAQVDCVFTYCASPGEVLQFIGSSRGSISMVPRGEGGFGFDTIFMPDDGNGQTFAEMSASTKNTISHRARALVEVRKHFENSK
It counts as biochemical. As to conditions: substrate inhibition constant; 5 mM MgCl2, 20 mM Tris-HCl pH 7.5, 0.1 mg/mL BSA, 1 mM DTT, 25 °C. From the text: HPLC (MonoQ) product analysis, fit to substrate inhibition model on TbITPA

Substrate in series [1]: NC(=O)c1ncn([C@@H]2O[C@H](CO[P@@](=O)(O)O[P@](=O)(O)OP(=O)(O)O)[C@@H](O)[C@H]2O)n1
In kind it is biochemical, Trypanosoma brucei. The settings on record: 5 mM MgCl2, 20 mM Tris-HCl pH 7.5, 0.1 mg/mL BSA, 1 mM DTT, 25 °C.

Substrate in series [2]: O=P(O)(O)OP(=O)(O)OP(=O)(O)OC[C@H]1O[C@@H](n2cnc3c(O)ncnc32)[C@H](O)[C@@H]1O
It counts as biochemical, Trypanosoma brucei. The settings on record: 5 mM MgCl2, 20 mM Tris-HCl pH 7.5, 0.1 mg/mL BSA, 1 mM DTT, 25 °C.

Substrate in series [3]: O=c1[nH]c(=O)c2ncn([C@@H]3O[C@H](COP(=O)(O)OP(=O)(O)OP(=O)(O)O)[C@@H](O)[C@H]3O)c2[nH]1
In kind it is biochemical, Trypanosoma brucei. The settings on record: 5 mM MgCl2, 20 mM Tris-HCl pH 7.5, 0.1 mg/mL BSA, 1 mM DTT, 25 °C.

Substrate in series [4]: O=c1[nH]cnc2c1ncn2[C@H]1C[C@H](O)[C@@H](COP(=O)(O)OP(=O)(O)OP(=O)(O)O)O1
It counts as biochemical, Trypanosoma brucei. The settings on record: 5 mM MgCl2, 20 mM Tris-HCl pH 7.5, 0.1 mg/mL BSA, 1 mM DTT, 25 °C.

As a reminder, the Km is the concentration of substrate that gives half-maximal velocity. What is called kcat is the maximal rate divided by the concentration of active sites. As a reminder, the kcat/Km is the turnover number divided by the Michaelis constant.

Take `O=c1[nH]c(=O)c2ncn([C@@H]3O[C@H](COP(=O)(O)OP(=O)(O)OP(=O)(O)O)[C@@H](O)[C@H]3O)c2[nH]1` [XTP]: the “Ki (μM)^a” value on TbITPA was 951 ± 220 µM.
Still for that read-out and setting: the result for `O=c1[nH]cnc2c1ncn2[C@@H]1O[C@H](COP(=O)(O)OP(=O)(O)OP(=O)(O)O)[C@@H](O)[C@H]1O` [ITP] reads 824 ± 275 µM; that for `O=c1[nH]cnc2c1ncn2[C@H]1C[C@H](O)[C@@H](COP(=O)(O)OP(=O)(O)OP(=O)(O)O)O1` [dITP], 98 ± 42 µM.

B1: TbITPA (Trypanosoma brucei brucei TREU927) (protein)
chain: T1 sequence (Q389X7 87-287)
notes: homodimer 48 kDa by gel filtration
In the case of B1, the Michaelis-Menten constant (Km) in series [1] worked out at 75 ± 24 µM; in series [2], 17 ± 3 µM; in series [3], 27 ± 4 µM; in series [4] it was 44 ± 18 µM. Further, the kcat is 100 ± 14 s⁻¹ in series [1], 59 ± 5 s⁻¹ in series [2], 37 ± 2 s⁻¹ in series [3] and 280 ± 74 s⁻¹ in series [4]. For the same molecule, the results for the kcat/Km in series [2], in series [3] and in series [4] were 3.5e+06 M⁻¹ s⁻¹, 1.4e+06 M⁻¹ s⁻¹ and 6.4e+06 M⁻¹ s⁻¹, respectively.

These data come from paper PMC9016069, “Inosine triphosphate pyrophosphatase from Trypanosoma brucei cleanses cytosolic pools from deaminated nucleotides” (Scientific Reports, 2022).
